Test results as given in paper PMC5931990.

Molecular target: Mouse CLIC6 CLIC domain (residues 363-597) (mouse) (UniProt Q8BHB9)
Test: SEC; analytical gel filtration after 10 minutes with 0 to 2 mM H2O2; running buffer without reducing or oxidative agents

“Mouse CLIC6 CLIC domain (residues 363-597) (from UniProt Q8BHB9 363-596) (domain or fragment)” showed a stoichiometry N of 2.
